This passage reports Kd results from patent publication US20100087363A1 (YEDA RESEARCH AND DEVELOPMENT, published 2010).

This test addresses T1, LDL (low density lipoprotein; Biomedical Technologies, Inc) (UniProt P04114 28-4563).
T1 construct: LDL is a lipoprotein particle (avg. mass 2.5x10^6 Da) of lipid and protein, not a pure protein
As to the kind of experiment: size exclusion chromatography (Superose 6) of a pre-incubated LDL + sLDLR mix (7 micromolar each); ratio of bound and free sLDLR peaks by sLDLR ELISA, assuming 5-fold dilution. How it is done:
Therefore, we employed another method for testing the binding of sLDLR to LDL. For this purpose, we incubated for 1 h at 37° C. a solution of LDL (Biomedical technologies, Inc, Ma, USA) and r-hsLDLR of Example 5 at a final concentration of 7 micromolar each in PBS plus 10 micromolar Calcium Chloride (PBS+). An aliquot of 0.1 ml was subjected to size exclusion chromatography on a Superose 6 HR 10/30 column (GE Healthcare Life Sciences Cat. No 17-5172-01). The column was eluted with PBS+ at a flow rate of 0.4 ml/min and fractions of 0.5 ml were collected. The concentration of r-hsLDLR was determined by a specific ELISA as follows:
Mab #28 anti-human sLDLR (5 microgram/ml in PBS; corresponding to Mab from hybridoma clone 28 deposited at the CNCM under No. 1-2391-U.S. Pat. No. 6,849,720) was used for coating of 96-well ELISA plates at 0.1 ml/well overnight at room temperature. The plates were then washed ×3 with PBS containing 0.05% Tween-20 and then blocked by 0.3 ml blocking buffer (1% bovine serum albumin, 5% sucrose, 0.05% sodium azide in PBS). The plates were then washed 3× with PBS. […] The plated were then washed 3× with reagent diluent, a substrate solution (0.1 ml TMB/E, Chemicon) is added to each well and the plates were either read within 5 min at 630 nm or stopped with H₂SO₄ (2 N 0.05 ml) and read at 450 nm.

B1: recombinant human soluble LDL receptor, amino acid residues 25-352 of the LDLR precursor, expressed in CHO cells (receptor)
chain: not shown
modifications: N-glycosylated at Asn 272 of the LDLR precursor
notes: range 25-352; Produced in DHFR-deficient CHO cells (InterPharm Laboratories); also called sLDLR; r-hsLDLR
As usually defined, the Kd is the equilibrium constant for the complex coming apart. Turning to B1, the dissociation constant Kd was around 10 nM.
